Results taken from publication PMC5536003.

Target: CXC chemokine receptor (CXCR)3, CXCR3A (UniProt P49682)
Chain of UniProt P49682 (P49682 whole entry): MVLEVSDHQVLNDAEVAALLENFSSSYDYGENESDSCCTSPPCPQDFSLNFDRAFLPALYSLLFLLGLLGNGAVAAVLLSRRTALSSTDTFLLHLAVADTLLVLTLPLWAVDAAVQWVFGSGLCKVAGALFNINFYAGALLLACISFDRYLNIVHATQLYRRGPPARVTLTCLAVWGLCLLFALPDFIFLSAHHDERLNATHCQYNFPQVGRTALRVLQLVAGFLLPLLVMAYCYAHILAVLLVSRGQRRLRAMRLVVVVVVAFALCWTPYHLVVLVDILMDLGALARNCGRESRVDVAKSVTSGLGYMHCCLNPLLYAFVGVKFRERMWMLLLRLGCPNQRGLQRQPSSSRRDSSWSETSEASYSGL

Molecule: CXC chemokine ligand (CXCL)10 (from UniProt P02778 22-98)
- increase of [Ca2+]i in Fura-2-loaded CHO/CXCR3A cells stimulated with 3 ng/mL CXCL10 (no GAG): 107 nM

B1: CXC chemokine ligand (CXCL)9 (ligand)
chain: TPVVRKGRCSCISTNQGTIHLQSLKDLKQFAPSPSCEKIEIIATLKNGVQTCLNPDSADVKELIKKWEKQVSQKKKQKNGKKHQKKKVLKVRKSQRSRQKKTT
- increase of [Ca2+]i in Fura-2-loaded CHO/CXCR3A cells stimulated with 1 µg/mL CXCL9 (no GAG): 598 nM

B2: CXC chemokine ligand (CXCL)11 (ligand)
chain: FPMFKRGRCLCIGPGVKAVKVADIEKASIMYPSNNCDKIEVIITLKENKGQRCLNPKSKQARLIIKKVERKNF
- increase of [Ca2+]i in Fura-2-loaded CHO/CXCR3A cells stimulated with 3 ng/mL CXCL11 (no GAG): 304 nM
